Data set [1] concerns NCC(=O)O. Briefly: purified protein. Particulars: Na+ primary substrate (S1) binding site, near F259 and I359.
For data set [2], the system named is C[C@H](N)C(=O)O. The data set can be described thus: purified protein. Particulars: Na+ primary substrate (S1) binding site, W259.

What is called Km is the concentration of substrate that gives half-maximal velocity. With LeuT (Aquifex aeolicus VF5), the Km in data set [1] came out at 1.2 ± 0.2 µM.

Take LeuT (Aquifex aeolicus VF5; F259W): the Km in data set [2] is 3.7 ± 0.9 µM.

The record behind these values is paper PMC6689989.
